{
  "source": "paper PMC5012629",
  "about": "(International Journal of Nanomedicine, 2016)",
  "binders": {"B1": {"name": "Full length N-terminal glutathione S-transferase (GST)-tagged human MDM4 (Murine double minute 4) (natural protein, UniProt O15151 1-490, looked up)", "chain": "MTSFSTSAQCSTSDSACRISPGQINQVRPKLPLLKILHAAGAQGEMFTVKEVMHYLGQYIMVKQLYDQQEQHMVYCGGDLLGELLGRQSFSVKDPSPLYDMLRKNLVTLATATTDAAQTLALAQDHSMDIPSQDQLKQSAEESSTSRKRTTEDDIPTLPTSEHKCIHSREDEDLIENLAQDETSRLDLGFEEWDVAGLPWWFLGNLRSNYTPRSNGSTDLQTNQDVGTAIVSDTTDDLWFLNESVSEQLGVGIKVEAADTEQTSEEVGKVSDKKVIEVGKNDDLEDSKSLSDDTDVEVTSEDEWQCTECKKFNSPSKRYCFRCWALRKDWYSDCSKLTHSLSTSDITAIPEKENEGNDVPDCRRTISAPVVRPKDAYIKKENSKLFDPCNSVEFLDLAHSSESQETISSMGEQLDNLSEQRTDTENMEDCQNLLKPCSLCEKRPRDGNIIHGRTGHLVTCFHCARRLKKAGASCPICKKEIQLVIKVFIA"}},
  "key": {"[1]": {"biological_target": "T1, Full length untagged human MDM2 (Murine double minute 2) (human, UniProt Q00987 1-491)", "T1 sequence (Q00987 whole entry)": "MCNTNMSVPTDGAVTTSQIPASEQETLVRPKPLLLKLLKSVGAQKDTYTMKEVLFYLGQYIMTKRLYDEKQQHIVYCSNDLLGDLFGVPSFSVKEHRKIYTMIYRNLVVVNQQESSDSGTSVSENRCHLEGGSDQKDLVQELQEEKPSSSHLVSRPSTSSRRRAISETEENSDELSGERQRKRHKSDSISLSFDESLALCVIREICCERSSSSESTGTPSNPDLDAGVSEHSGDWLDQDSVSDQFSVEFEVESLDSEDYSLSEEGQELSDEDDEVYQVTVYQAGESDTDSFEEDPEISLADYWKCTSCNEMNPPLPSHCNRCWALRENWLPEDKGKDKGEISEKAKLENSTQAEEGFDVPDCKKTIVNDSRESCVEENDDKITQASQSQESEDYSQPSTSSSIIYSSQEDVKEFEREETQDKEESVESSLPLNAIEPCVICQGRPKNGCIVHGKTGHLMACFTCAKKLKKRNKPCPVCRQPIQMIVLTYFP", "test": "atomic force spectroscopy"}, "[2]": {"biological_target": "T1, Full length untagged human MDM2 (Murine …)", "test": "SPR"}},
  "data": [
    {"binder": "B1", "values": [
      {"measurement": "koff", "setting": "[1]", "result": "0.02 ± 0.01", "unit": "s⁻¹"},
      {"measurement": "Kd", "setting": "[2]", "result": 2, "unit": "µM"}
    ]}
  ]
}
